In data set [1] the target is T1, BCD(R221A)X2 (Homo sapiens, UniProt O15315;O43502;O75771;O43543 1-345;1-376;1-328;1-280, R221A).
T1 sequence 1: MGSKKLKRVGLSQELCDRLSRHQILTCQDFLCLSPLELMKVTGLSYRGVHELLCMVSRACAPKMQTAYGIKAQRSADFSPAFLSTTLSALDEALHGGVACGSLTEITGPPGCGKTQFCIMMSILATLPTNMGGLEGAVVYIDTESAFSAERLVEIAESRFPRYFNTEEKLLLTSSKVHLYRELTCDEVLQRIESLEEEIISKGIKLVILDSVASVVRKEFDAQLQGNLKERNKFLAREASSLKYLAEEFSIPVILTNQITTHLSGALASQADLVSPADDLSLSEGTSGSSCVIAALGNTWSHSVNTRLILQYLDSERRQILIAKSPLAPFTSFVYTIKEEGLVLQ
T1 sequence 2: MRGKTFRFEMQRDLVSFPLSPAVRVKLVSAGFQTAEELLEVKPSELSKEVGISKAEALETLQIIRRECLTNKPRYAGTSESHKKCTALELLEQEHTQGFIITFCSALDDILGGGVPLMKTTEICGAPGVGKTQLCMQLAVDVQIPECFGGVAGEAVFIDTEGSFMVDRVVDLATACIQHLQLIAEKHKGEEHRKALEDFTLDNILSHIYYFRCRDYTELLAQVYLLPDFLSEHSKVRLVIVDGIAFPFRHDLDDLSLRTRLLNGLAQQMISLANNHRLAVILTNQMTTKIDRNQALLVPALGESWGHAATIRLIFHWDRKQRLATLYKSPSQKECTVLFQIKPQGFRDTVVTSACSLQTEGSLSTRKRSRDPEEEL
T1 sequence 3: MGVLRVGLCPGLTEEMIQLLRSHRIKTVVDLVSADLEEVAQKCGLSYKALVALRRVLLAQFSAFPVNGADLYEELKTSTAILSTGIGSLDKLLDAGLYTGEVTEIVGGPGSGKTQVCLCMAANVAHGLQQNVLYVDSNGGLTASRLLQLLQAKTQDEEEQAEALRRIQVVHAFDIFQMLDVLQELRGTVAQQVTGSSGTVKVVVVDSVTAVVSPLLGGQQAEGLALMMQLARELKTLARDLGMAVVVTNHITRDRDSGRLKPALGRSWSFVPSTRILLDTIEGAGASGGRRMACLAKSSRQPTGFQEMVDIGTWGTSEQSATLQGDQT
T1 sequence 4: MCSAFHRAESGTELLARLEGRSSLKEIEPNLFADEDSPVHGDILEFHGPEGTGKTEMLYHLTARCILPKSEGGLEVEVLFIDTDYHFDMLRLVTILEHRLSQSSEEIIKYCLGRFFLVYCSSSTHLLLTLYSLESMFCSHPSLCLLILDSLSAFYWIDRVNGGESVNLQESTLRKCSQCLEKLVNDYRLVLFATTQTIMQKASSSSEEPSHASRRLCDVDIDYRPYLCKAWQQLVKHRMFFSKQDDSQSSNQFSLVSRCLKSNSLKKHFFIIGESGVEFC
Briefly: fluorescence anisotropy; 1 mM ATP; minimal effect; FA: protein in 25 mM HEPES pH 7.5, 10% glycerol, 2.5 mM MgCl2, 0.25 mM TCEP, 150 mM NaCl mixed 1:1 with oligo in HMT buffer, 50 mM NaCl (final ~100 mM NaCl, 5%). Particulars: protein: recombinant; tags: N-terminal TwinStrep-TEV on XRCC2, cleaved; copies: 1;1;1;1; label: 5'-FAM. For orientation: Polarisation of emitted light reports the rotation of a fluorescent probe.

Data set [2] concerns the target T2, B(R217A)CDX2 (Homo sapiens, UniProt O15315;O43502;O75771;O43543 1-345;1-376;1-328;1-280, R217A).
T2 sequence 1: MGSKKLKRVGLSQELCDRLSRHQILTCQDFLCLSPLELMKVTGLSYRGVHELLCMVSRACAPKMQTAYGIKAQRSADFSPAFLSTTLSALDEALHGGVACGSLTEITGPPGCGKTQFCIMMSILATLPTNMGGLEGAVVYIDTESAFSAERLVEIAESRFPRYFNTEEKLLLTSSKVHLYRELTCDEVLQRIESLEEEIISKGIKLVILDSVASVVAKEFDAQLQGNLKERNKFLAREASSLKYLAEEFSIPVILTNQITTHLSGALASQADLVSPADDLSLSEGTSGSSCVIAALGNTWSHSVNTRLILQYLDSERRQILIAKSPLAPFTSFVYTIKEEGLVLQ
T2 sequence 2: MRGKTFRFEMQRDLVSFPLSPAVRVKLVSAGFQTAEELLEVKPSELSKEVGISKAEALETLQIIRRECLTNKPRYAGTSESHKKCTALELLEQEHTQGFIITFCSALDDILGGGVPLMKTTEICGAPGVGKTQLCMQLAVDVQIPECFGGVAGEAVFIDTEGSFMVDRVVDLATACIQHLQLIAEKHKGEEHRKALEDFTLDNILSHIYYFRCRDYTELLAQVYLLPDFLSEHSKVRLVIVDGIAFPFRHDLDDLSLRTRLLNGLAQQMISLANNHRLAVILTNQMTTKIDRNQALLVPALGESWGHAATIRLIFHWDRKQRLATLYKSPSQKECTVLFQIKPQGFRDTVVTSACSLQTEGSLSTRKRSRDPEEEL
T2 sequence 3: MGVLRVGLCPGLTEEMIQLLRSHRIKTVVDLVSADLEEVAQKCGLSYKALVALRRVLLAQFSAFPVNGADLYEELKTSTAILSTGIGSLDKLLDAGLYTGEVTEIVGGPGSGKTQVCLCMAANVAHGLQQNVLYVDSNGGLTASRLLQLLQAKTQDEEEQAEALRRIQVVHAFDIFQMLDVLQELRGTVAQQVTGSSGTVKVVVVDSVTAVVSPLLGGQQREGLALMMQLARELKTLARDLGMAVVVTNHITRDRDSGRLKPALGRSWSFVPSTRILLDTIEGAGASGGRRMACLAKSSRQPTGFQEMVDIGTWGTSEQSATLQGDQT
T2 sequence 4: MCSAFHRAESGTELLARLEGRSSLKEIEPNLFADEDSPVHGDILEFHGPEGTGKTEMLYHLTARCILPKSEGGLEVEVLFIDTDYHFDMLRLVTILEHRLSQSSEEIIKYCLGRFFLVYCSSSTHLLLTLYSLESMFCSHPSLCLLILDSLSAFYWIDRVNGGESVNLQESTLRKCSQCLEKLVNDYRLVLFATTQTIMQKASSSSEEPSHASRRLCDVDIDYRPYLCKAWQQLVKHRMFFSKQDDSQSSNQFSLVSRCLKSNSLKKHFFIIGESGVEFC
The experiment in a line: fluorescence anisotropy; 1 mM ATP; similar to WT; FA: protein in 25 mM HEPES pH 7.5, 10% glycerol, 2.5 mM MgCl2, 0.25 mM TCEP, 150 mM NaCl mixed 1:1 with oligo in HMT buffer, 50 mM NaCl (final ~100 mM NaCl, 5%). The settings on record: protein: recombinant; tags: N-terminal TwinStrep-TEV on XRCC2, cleaved; copies: 1;1;1;1; label: 5'-FAM.

Data set [3] concerns the target T3, B(R231A)CDX2 (Homo sapiens, UniProt O15315;O43502;O75771;O43543 1-345;1-376;1-328;1-280, R231A).
T3 sequence 1: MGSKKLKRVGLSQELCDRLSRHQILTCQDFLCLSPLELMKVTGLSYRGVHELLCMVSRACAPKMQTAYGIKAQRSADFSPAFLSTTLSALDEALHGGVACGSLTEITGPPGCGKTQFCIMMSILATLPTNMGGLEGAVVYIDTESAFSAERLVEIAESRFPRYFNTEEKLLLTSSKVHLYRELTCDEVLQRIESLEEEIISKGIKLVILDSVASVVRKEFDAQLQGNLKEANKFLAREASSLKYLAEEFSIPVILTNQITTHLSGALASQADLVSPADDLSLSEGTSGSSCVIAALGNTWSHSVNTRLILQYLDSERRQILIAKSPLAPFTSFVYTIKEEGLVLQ
T3 sequence 2: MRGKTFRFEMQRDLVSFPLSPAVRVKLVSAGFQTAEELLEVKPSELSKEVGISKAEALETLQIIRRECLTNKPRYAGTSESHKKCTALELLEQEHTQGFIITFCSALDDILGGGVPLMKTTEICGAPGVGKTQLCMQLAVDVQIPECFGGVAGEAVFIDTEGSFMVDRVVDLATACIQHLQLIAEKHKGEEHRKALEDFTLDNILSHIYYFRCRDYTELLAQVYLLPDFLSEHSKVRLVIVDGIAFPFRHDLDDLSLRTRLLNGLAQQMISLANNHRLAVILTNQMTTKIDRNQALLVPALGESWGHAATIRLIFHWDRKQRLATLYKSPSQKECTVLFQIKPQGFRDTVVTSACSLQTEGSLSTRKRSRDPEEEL
T3 sequence 3: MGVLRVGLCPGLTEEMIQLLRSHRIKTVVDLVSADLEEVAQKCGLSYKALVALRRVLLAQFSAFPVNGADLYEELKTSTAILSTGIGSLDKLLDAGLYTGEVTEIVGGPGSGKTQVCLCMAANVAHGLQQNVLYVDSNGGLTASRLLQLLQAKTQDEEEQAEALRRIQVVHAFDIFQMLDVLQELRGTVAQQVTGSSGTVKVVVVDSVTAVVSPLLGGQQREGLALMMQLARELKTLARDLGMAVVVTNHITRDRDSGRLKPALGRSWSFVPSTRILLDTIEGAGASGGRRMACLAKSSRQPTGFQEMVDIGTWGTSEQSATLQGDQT
T3 sequence 4: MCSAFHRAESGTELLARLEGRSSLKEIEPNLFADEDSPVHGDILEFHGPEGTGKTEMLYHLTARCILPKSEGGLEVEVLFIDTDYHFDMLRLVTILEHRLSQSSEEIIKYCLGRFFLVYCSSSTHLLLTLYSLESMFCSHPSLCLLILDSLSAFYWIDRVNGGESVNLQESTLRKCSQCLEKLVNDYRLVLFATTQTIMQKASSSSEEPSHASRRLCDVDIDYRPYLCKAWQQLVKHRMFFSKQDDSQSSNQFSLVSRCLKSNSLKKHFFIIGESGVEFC
The description is as above. The settings on record: protein: recombinant; tags: N-terminal TwinStrep-TEV on XRCC2, cleaved; copies: 1;1;1;1; label: 5'-FAM.

Data set [4] has as its target T4, BCDX2(AF647) (Homo sapiens, UniProt O15315;O43502;O75771;O43543 1-345;1-376;1-328;1-280).
T4 sequence 1: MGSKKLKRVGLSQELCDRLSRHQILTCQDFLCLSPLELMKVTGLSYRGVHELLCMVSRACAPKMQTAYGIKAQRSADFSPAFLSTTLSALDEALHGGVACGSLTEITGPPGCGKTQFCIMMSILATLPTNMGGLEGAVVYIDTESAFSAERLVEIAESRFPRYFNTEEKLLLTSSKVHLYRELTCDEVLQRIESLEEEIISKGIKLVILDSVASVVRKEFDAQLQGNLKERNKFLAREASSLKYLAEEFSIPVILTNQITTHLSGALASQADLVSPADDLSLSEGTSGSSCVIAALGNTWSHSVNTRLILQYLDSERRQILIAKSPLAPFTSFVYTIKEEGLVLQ
T4 sequence 2: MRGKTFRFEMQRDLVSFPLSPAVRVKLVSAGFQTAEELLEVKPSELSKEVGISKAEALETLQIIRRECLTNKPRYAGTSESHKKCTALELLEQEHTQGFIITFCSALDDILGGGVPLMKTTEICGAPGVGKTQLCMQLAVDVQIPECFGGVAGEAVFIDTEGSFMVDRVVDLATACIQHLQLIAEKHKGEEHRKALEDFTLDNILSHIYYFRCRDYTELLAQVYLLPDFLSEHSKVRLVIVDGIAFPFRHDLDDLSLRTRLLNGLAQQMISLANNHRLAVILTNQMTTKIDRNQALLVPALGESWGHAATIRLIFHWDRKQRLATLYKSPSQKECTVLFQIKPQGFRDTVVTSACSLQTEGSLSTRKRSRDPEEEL
T4 sequence 3: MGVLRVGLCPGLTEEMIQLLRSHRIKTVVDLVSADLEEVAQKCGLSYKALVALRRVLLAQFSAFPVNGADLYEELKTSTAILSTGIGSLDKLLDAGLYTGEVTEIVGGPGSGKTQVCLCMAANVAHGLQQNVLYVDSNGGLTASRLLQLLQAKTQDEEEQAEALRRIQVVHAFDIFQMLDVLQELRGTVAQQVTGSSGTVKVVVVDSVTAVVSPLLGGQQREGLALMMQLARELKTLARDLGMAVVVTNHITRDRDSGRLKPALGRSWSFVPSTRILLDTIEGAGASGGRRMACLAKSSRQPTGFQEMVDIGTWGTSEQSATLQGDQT
T4 sequence 4: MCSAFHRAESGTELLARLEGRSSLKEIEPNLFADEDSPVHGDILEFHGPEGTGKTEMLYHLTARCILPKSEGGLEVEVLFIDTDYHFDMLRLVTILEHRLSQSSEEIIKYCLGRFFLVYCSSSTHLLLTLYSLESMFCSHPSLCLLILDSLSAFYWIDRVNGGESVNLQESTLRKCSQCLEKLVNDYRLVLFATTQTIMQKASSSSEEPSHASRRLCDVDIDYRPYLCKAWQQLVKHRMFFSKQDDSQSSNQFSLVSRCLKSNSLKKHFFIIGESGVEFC
The experiment in a line: bulk FRET; high FRET; XRCC2 near 5' end; FA: protein in 25 mM HEPES pH 7.5, 10% glycerol, 2.5 mM MgCl2, 0.25 mM TCEP, 150 mM NaCl mixed 1:1 with oligo in HMT buffer, 50 mM NaCl (final ~100 mM NaCl, 5%). Particulars: protein: recombinant; copies: 1;1;1;1; label: 5'-Cy3.

Regarding TATCGAATCCGTCTA (ssDNA) [FAM-dN15nt], the binding result in data set [1], in data set [2] and in data set [3] was “binds” in each case.

For the molecule TATCGAATCCGTCTA (ssDNA) [5'-Cy3-dN15nt], in data set [4], the binding result is recorded as “binds”.
